Substitutions are numbered along the chain they refer to.
B1: 39S antibody (antibody, V domains shown)
VH: EVQLVESGGGLVKPGGSLRLSCAASGFTFSSYSMSWVRQAPGKGLEWVSSISSSSSYIYYADSVKGRFTISRDNAKNSLYLQMNSLRAEDTAVYYCARGGDAYNYYYFDYWGQGTLVTVSS
VL: DIVMTQTPLSLSVTPGQPASISCKSSQSVFFRSNNKNILAWYLQKPGQPPQLLIYWASSRESGVPDRFSGSGSGTDFTLKISRVEAEDVGVYYCQQYFGSPFTFGPGTKVDIK
notes: also called lead optimized 39S antibody (LO); anti-HER2 mAb 39S
B2: AZ1.39.1 (antibody, V domains shown)
VH: B1 VH with S35N, A102G
VL: DIVMTQSPDSLAVSLGERATITCKSSQSVFFRSNNKNCLAWYQQRPGQPPNLLIYWASSRESGVPDRFSGSGSGTDFALTISSLQTEDVAVYYCQQYFGSPFTFGPGTKVDIK

Key:
[1] = molecular target: Human Her2 (control of Table 4) (human, UniProt P04626 23-652); assay: SPR (ProteOn XPR36), human Her2 captured by anti-Her2 polyclonal antibody, 39S injected; apparent affinity
Experimental: (§1) The chimeric variant nomenclature denotes types of variants (KO/KI) and the number of domains swapped. […] The expression of the variants was monitored by anti-His polyclonal antibody using ProteOn™.
(§2) Standard amine coupling was used to immobilize an anti-human or mouse Her2 polyclonal antibody (R&D System) in 10 mM sodium acetate (pH 5.0) to the surface of a GLC biosensor chip at ˜5000 resonance units (RU) for each channel. The chimeric proteins in cell culture supernatant were injected and captured by anti-human or mouse polyclonal antibodies onto the GLC surface with a ˜200 RU response. […] The surface was regenerated twice by injecting glycine buffer (10 mM, pH 1.5) at 100 μL/min for 30 sec. All sensorgram data were processed with the ProteOn™ Manager 3.0.1 software.

[2] = molecular target: T1, human HER2 on cells (human, UniProt P04626 23-1255); assay: FACS competition on BT-474 cells; competitor: fluorescently labelled 39S at 2 µg/mL; unlabelled antibody titrated
T1 construct: whole, on cells; also called HER2 on BT-474 cells; HER2 on T47D cells
Experimental: BT-474 cells were harvested, resuspended in FACS buffer, and 2.5×10⁵ cells/well were added to a 96-well U-bottom plate. […] After 1 hour of staining on ice, cells were washed 3 times with ice-cold FACS buffer and then fixed with 2% PFA. Cells were analyzed by a BD LSR II machine with BD FACSDiva™ software. Data were analyzed with FlowJo software and presented as mean MFI±SEM (n=3).

[3] = molecular target: T2, KO_192-208 (human; mouse, UniProt P70424 215-231); assay: SPR (ProteOn XPR36), variant captured by anti-Her2 polyclonal antibody, 39S injected
T2 construct: domain: counterpart of human amino acids 192-208
Experimental: as §1, §2

[4] = molecular target: T3, KO_146-208 (human; mouse, UniProt P70424 169-231); assay: as above
T3 construct: domain: counterpart of human amino acids 146-208
Experimental: as §1, §2

[5] = molecular target: T4, recombinant human HER2 extracellular domain protein (human, UniProt P04626 23-652); assay: BIAcore (SPR), format not stated
[6] = molecular target: T5, KO_295-296 (human; mouse, UniProt P70424 318-319); assay: SPR (ProteOn XPR36), variant captured by anti-Her2 polyclonal antibody, 39S injected; apparent affinity
T5 construct: domain: counterpart of human amino acids 295-296
Experimental: as §1, §2

[7] = molecular target: KO_171-187 (human; mouse, UniProt P70424 194-210); assay: as above
Experimental: as §1, §2

[8] = molecular target: T6, KO_250-261 (human; mouse, UniProt P70424 273-284); assay: as above
T6 construct: domain: counterpart of human amino acids 250-261
Experimental: as §1, §2

[9] = molecular target: T7, KO_276-285 (human; mouse, UniProt P70424 299-308); assay: as above
T7 construct: domain: counterpart of human amino acids 276-285
Experimental: as §1, §2

[10] = molecular target: T8, KO_159-162 (human; mouse, UniProt P70424 182-185); assay: as above
T8 construct: domain: counterpart of human amino acids 159-162
Experimental: as §1, §2

[11] = molecular target: T9, human EGFR recombinant extracellular domain protein (human, UniProt P00533 25-645); assay: capture ELISA on coated recombinant extracellular domain protein
T9 construct: extracellular domain
Experimental: (§3) Antibody to be tested was prepared by diluting in a stepwise 1:3 serial dilution ranging from 50 nM down to 0.28 pM and then added to the wells in duplicate. After one hour of incubation, plates were washed, and goat anti-human IgG Fab HRP-conjugated secondary antibody was added to each well and the plates were incubated for 1 hour. The plates were washed and TMB substrate was added and incubated for 5-20 min to allow color development. The stop solution was added to the wells at the end of reaction and the plates were read at 450 nm. Binding signal (absorbance at 450 nm) was plotted against antibody concentration using Prism software.

[12] = molecular target: T10, human HER3 recombinant extracellular domain protein (human, UniProt P21860 20-643); assay: as above
T10 construct: extracellular domain
Experimental: as §3

[13] = molecular target: T11, human HER4 recombinant extracellular domain protein (human, UniProt Q15303 26-651); assay: as above
T11 construct: extracellular domain
T11 sequence (looked up): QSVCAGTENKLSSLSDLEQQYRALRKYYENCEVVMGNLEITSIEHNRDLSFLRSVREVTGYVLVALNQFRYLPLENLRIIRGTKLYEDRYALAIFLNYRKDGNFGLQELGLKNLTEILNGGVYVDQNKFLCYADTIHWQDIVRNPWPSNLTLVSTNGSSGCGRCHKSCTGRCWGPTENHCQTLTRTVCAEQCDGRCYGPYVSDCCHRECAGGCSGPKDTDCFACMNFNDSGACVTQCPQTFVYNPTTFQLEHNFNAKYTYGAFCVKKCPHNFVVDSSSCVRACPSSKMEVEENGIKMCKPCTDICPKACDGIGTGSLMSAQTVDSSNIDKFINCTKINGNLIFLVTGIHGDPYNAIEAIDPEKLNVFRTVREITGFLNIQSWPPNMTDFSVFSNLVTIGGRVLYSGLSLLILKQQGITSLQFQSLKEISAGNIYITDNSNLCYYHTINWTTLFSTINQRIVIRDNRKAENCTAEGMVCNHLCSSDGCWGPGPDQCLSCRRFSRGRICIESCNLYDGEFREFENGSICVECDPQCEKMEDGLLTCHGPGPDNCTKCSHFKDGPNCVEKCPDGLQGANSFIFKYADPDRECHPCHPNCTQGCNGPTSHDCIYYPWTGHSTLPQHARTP
Experimental: as §3

[14] = molecular target: T4, recombinant human HER2 extracellular …; assay: BIAcore KD of 39S against the reported KD of 1.39.1
[15] = molecular target: T12, mouse Her2 recombinant extracellular domain protein (mouse, UniProt P70424 23-653); assay: capture ELISA on coated recombinant extracellular domain protein
T12 construct: extracellular domain
Experimental: as §3

Binder | Kd [1] [nM] | IC50 (read off the curve) [2] [µg/mL] | binding result [3] | binding result [4] | Kd [5] [nM] | Kd [6] [nM] | Kd [7] [nM] | Kd [8] [nM] | Kd [9] [nM] | Kd [10] [nM] | binding result [11] | binding result [12] | binding result [13] | fold increase in binding affinity over the parental antibody (1.39.1) [14] [fold] | binding result [15]
B1 | 0.084 | ~3 | no binding | no binding | ~1 | 0.0847 | 0.038 | 0.187 | 0.106 | 0.101 | no binding (tested: 50 nM (highest concentration tested)) | no binding (tested: 50 nM (highest concentration tested)) | no binding (tested: 50 nM (highest concentration tested)) | 2 | –
B2 | – | ~5 | – | – | – | – | – | – | – | – | no binding | no binding | no binding | – | no binding

From US20170291955A1 (AstraZeneca / MedImmune, published 2017)
